Assay results taken from patent US7462599.

Columns and labels:
[1] = molecular target: recombinant human glutaminyl cyclase (QC, EC 2.3.2.5) (human) (UniProt Q16769); assay: competitive inhibition of the human QC catalyzed reaction, 30° C, 0.05 M Tris-HCl pH 8.0, 5 mM EDTA
H-Gln-Phe-Ala-NH2 = test system: T1, H-Gln-Phe-Ala-NH2
T1 sequence: QFA

[2] = test system: T2, H-Gln-Ala-Ala-Ser-Ala-Ala-NH2
T2 sequence: QAASAA

H-Gln-Pro-Tyr-Phe-NH2 = test system: T3, H-Gln-Pro-Tyr-Phe-NH2
T3 sequence: QPYF

H-Gln-Arg-Gly-Ile-NH2 = test system: T4, H-Gln-Arg-Gly-Ile-NH2
T4 sequence: QRGI

H-Gln-Glu-OH = test system: T5, H-Gln-Glu-OH
T5 sequence: QE

H-Gln-Ala-NH2 = test system: T6, H-Gln-Ala-NH2
T6 sequence: QA

[Gln^1]-FPP = test system: T7, [Gln^1]-FPP
T7 sequence: QEP

[Gln^3]-glucagon(3-29) = [Gln^3]-glucagon(3-29) (UniProt P01275)
[Gln^3]-glucagon(3-29), sequence (P01275 23-49): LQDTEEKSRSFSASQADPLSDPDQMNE

H-Gln-Trp-Ala-NH2 = test system: T8, H-Gln-Trp-Ala-NH2
T8 sequence: QWA

[3] = test system: T9, H-Gln-Ala-Ala-Ala-Ala-NH2
T9 sequence: QAAAA

H-Gln-Glu-Asp-Leu-NH2 = test system: T10, H-Gln-Glu-Asp-Leu-NH2
T10 sequence: QEDL

H-Gln-Tyr-Ala-OH = test system: T11, H-Gln-Tyr-Ala-OH
T11 sequence: QYA

[4] = test system: T12, H-Gln(NMe)-Phe-Lys-Ala-Glu-NH2
T12 sequence: QFKAE

H-Gln-Asn-Gly-Ile-NH2 = test system: T13, H-Gln-Asn-Gly-Ile-NH2
T13 sequence: QNGI

H-Gln-His-Tyr-Phe-NH2 = test system: T14, H-Gln-His-Tyr-Phe-NH2
T14 sequence: QHYF

H-Gln-Glu-Ala-Phe-NH2 = test system: T15, H-Gln-Glu-Ala-Phe-NH2
T15 sequence: QEAF

H-Gln-Ala-OH = test system: T16, H-Gln-Ala-OH
T16 sequence: QA

H-Gln-Gln-Tyr-Phe-NH2 = test system: T17, H-Gln-Gln-Tyr-Phe-NH2
T17 sequence: QQYF

H-Gln-Gly-OH = test system: T18, H-Gln-Gly-OH
T18 sequence: QG

H-Gln-Glu-Ala-Ala-NH2 = test system: T19, H-Gln-Glu-Ala-Ala-NH2
T19 sequence: QEAA

H-Gln-Glu-Tyr-Ala-NH2 = test system: T20, H-Gln-Glu-Tyr-Ala-NH2
T20 sequence: QEYA

H-Gln-Glu-Tyr-NH2 = test system: T21, H-Gln-Glu-Tyr-NH2
T21 sequence: QEY

[Gln^1]-Gastrin = test system: T22, [Gln^1]-Gastrin
T22 sequence: QGPWLEEEEEAYGWMDF

[5] = test system: T23, [Gln^5]-substance P(5-11)
T23 sequence: QQFFGLM

H-Gln-Arg-Tyr-Phe-NH2 = test system: T24, H-Gln-Arg-Tyr-Phe-NH2
T24 sequence: QRYF

H-Gln-Lys-Arg-Leu-NH2 = test system: T25, H-Gln-Lys-Arg-Leu-NH2
T25 sequence: QKRL

[Gln^1]-GnRH = test system: T26, [Gln^1]-GnRH
T26 sequence: QHWSYGLRPG

[6] = test system: T27, H-Gln-cyclo(Nε-Lys-Arg-Pro-Ala-Gly-Phe)
T27 sequence: QKRPAGF

H-Gln-Gly-Pro-OH = test system: T28, H-Gln-Gly-Pro-OH
T28 sequence: QGP

H-Gln-Ser-Tyr-Phe-NH2 = test system: T29, H-Gln-Ser-Tyr-Phe-NH2
T29 sequence: QSYF

[7] = test system: T30, H-βhomoGln-Phe-Lys-Arg-Leu-Ala-NH2
T30 sequence: QFKRLA

H-Gln-Glu-Tyr-Phe-NH2 = test system: T31, H-Gln-Glu-Tyr-Phe-NH2
T31 sequence: QEYF

H-Gln-Gln-OH = test system: T32, H-Gln-Gln-OH
T32 sequence: QQ

H-Gln-Ala-Ala-NH2 = test system: T33, H-Gln-Ala-Ala-NH2
T33 sequence: QAA

recombinant human glutaminyl cyclase (QC, EC 2.3.2.5) (human), sequence (Q16769 29-361 limits assumed): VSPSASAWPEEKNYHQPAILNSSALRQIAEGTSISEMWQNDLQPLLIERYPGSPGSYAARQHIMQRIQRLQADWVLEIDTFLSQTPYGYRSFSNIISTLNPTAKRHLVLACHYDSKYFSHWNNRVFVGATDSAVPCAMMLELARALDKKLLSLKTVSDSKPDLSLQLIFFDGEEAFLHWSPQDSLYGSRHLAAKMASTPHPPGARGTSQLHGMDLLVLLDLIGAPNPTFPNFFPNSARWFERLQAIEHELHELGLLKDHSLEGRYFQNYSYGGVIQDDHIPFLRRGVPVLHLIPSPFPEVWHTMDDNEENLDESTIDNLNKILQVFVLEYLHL

Work on H-His-Trp-OH (peptide) yielded a Ki [1] of 600 µM.

For “glutaminyl cyclase from Carica papaya latex”, the KM (substrate conversion by QC) (H-Gln-Phe-Ala-NH2) was 111 µM, the KM (substrate conversion by QC) [2] was 216 µM and the KM (substrate conversion by QC) (H-Gln-Pro-Tyr-Phe-NH2) was 149 µM. For the same substance, the KM (0.05 M Tricine-NaOH, pH 8.0) (H-Gln-Arg-Gly-Ile-NH2) was 0.106 mM, the KM (0.05 M Tricine-NaOH, pH 8.0, 0.5 M KCl) (H-Gln-Arg-Gly-Ile-NH2) was 0.065 mM and the KM (substrate conversion by QC) (H-Gln-Arg-Gly-Ile-NH2) was 123 µM. It also gave a KM (0.05 M Tricine-NaOH, pH 8.0) (H-Gln-Glu-OH) of 0.098 mM, a KM (0.05 M Tricine-NaOH, pH 8.0, 0.5 M KCl) (H-Gln-Glu-OH) of 0.094 mM and a KM (substrate conversion by QC) (H-Gln-Glu-OH) of 106 µM. The KM (substrate conversion by QC) (H-Gln-Ala-NH2) was 212 µM, the KM (substrate conversion by QC) ([Gln^1]-FPP) was 232 µM and the “substrate conversion, determined qualitatively by MALDI-TOF” value ([Gln^3]-glucagon(3-29)) was “*”. For the same substance, the KM (0.05 M Tricine-NaOH, pH 8.0) (H-Gln-Trp-Ala-NH2) was 0.079 mM, the KM (0.05 M Tricine-NaOH, pH 8.0, 0.5 M KCl) (H-Gln-Trp-Ala-NH2) was 0.072 mM and the KM (substrate conversion by QC) (H-Gln-Trp-Ala-NH2) was 78 µM. For the same substance, the KM (substrate conversion by QC) [3] was 197 µM, the KM (substrate conversion by QC) ([Gln^1]-Neurotensin) was 40 µM and the KM (0.05 M Tricine-NaOH, pH 8.0) (H-Gln-Glu-Asp-Leu-NH2) was 0.109 mM. The KM (0.05 M Tricine-NaOH, pH 8.0, 0.5 M KCl) (H-Gln-Glu-Asp-Leu-NH2) was 0.094 mM, the KM (substrate conversion by QC) (H-Gln-Glu-Asp-Leu-NH2) was 107 µM and the KM (substrate conversion by QC) (H-Gln-Tyr-Ala-OH) was 63 µM. The “conversion to the pyroglutamyl peptide (MALDI-TOF)” value [4] was “The methylated glutaminyl residue was only converted into a pyroglutamyl residue by papaya QC”, the KM (substrate conversion by QC) (H-Gln-Asn-Gly-Ile-NH2) was 153 µM and the KM (substrate conversion by QC) (H-Gln-His-Tyr-Phe-NH2) was 92 µM. The KM (substrate conversion by QC) (H-Gln-Glu-Ala-Phe-NH2) was 81 µM, the KM (0.05 M Tricine-NaOH, pH 8.0) (H-Gln-Ala-OH) was 0.137 mM and the KM (0.05 M Tricine-NaOH, pH 8.0, 0.5 M KCl) (H-Gln-Ala-OH) was 0.143 mM. The KM (substrate conversion by QC) (H-Gln-Ala-OH) was 158 µM, the KM (substrate conversion by QC) (H-Gln-Gln-Tyr-Phe-NH2) was 45 µM and the KM (substrate conversion by QC) (H-Gln-Gly-OH) was 641 µM. The KM (substrate conversion by QC) (H-Gln-Glu-Ala-Ala-NH2) was 102 µM, the KM (substrate conversion by QC) (H-Gln-Glu-Tyr-Ala-NH2) was 113 µM and the KM (substrate conversion by QC) (H-Gln-Glu-Tyr-NH2) was 103 µM. The KM (substrate conversion by QC) ([Gln^1]-Gastrin) was 34 µM, the “substrate conversion, determined qualitatively by MALDI-TOF” value [5] was “*” and the KM (substrate conversion by QC) (H-Gln-Arg-Tyr-Phe-NH2) was 124 µM. It also gave a KM (0.05 M Tricine-NaOH, pH 8.0) (H-Gln-Lys-Arg-Leu-NH2) of 0.102 mM, a KM (0.05 M Tricine-NaOH, pH 8.0, 0.5 M KCl) (H-Gln-Lys-Arg-Leu-NH2) of 0.053 mM and a KM (substrate conversion by QC) (H-Gln-Lys-Arg-Leu-NH2) of 118 µM. The KM (substrate conversion by QC) ([Gln^1]-GnRH) was 169 µM, the “KM (substrate conversion by QC)” value [6] was “KM-values of 240±14 µM and 133±5 µM for human and papaya QC, respectively” and the KM (substrate conversion by QC) (H-Gln-Gly-Pro-OH) was 333 µM. For the same substance, the KM (substrate conversion by QC) (H-Gln-Ser-Tyr-Phe-NH2) was 135 µM, the “KM (substrate conversion by QC)” value [7] was “KM=3.1±0.3 mM” and the KM (substrate conversion by QC) (H-Gln-Glu-Tyr-Phe-NH2) was 100 µM. The KM (substrate conversion by QC) (H-Gln-Gln-OH) was 44 µM and the KM (substrate conversion by QC) (H-Gln-Ala-Ala-NH2) was 164 µM.
